The sequences below were run on Escherichia coli TOP10 (assay: shrunken log2 fold change of peptide-encoding DNA abundance (4.5 h post-induction vs induction); higher = less antimicrobial activity (less host growth inhibition)). Settings: time post-induction: 4.5 h; library: site-saturation at positions 5, 18, 19, 20.
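Also: peptides expressed intracellularly from a pBAD plasmid library in pooled LB shake-flask culture, induced with 0.3% L-arabinose, DNA abundance read by NGS, three biological replicates, DESeq2 with apeglm shrinkage.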

| Sequence | shrunken log2 fold change |
| --- | --- |
| RRIRSRPPRLPRPRPRPCYSPRP | -0.839 |
| RRIRKRPPRLPRPRPRPKDDPRP | 0.0898 |
| RRIRTRPPRLPRPRPRPYMLPRP | -1.13 |
| RRIRWRPPRLPRPRPRPVDSPRP | 0.183 |
| RRIRNRPPRLPRPRPRPAICPRP | -0.0274 |
| RRIRERPPRLPRPRPRPESKPRP | -0.145 |
| RRIRTRPPRLPRPRPRPGWSPRP | 0.354 |
| RRIRKRPPRLPRPRPRPIGYPRP | -0.0204 |
| RRIRNRPPRLPRPRPRPASEPRP | -0.0216 |
| RRIRPRPPRLPRPRPRPVKIPRP | 0.154 |
| RRIRCRPPRLPRPRPRPYCFPRP | -0.783 |
| RRIRKRPPRLPRPRPRPAYSPRP | -0.0338 |
| RRIRLRPPRLPRPRPRPKAKPRP | 0.0705 |
| RRIRMRPPRLPRPRPRPKVNPRP | 0.31 |
| RRIRLRPPRLPRPRPRPACNPRP | -0.191 |
| RRIRPRPPRLPRPRPRPATTPRP | 0.0694 |
| RRIRRRPPRLPRPRPRPERHPRP | 0.549 |
| RRIRTRPPRLPRPRPRPQVGPRP | -0.137 |
| RRIRSRPPRLPRPRPRPYAKPRP | -0.123 |
| RRIRHRPPRLPRPRPRPIQDPRP | -0.00151 |
| RRIRYRPPRLPRPRPRPCWGPRP | -0.204 |
| RRIRYRPPRLPRPRPRPQEKPRP | -0.0798 |
| RRIRCRPPRLPRPRPRPIDAPRP | -0.268 |
| RRIRRRPPRLPRPRPRPWIGPRP | 0.0943 |
| RRIRGRPPRLPRPRPRPISCPRP | 0.279 |

| Sequence | shrunken log2 fold change |
| --- | --- |
| RRIRMRPPRLPRPRPRPVQNPRP | 0.0136 |
| RRIRLRPPRLPRPRPRPQGAPRP | -0.145 |
| RRIRSRPPRLPRPRPRPCSCPRP | 0.000754 |
| RRIRCRPPRLPRPRPRPDKYPRP | -0.717 |
| RRIRRRPPRLPRPRPRPMHVPRP | 0.281 |
| RRIRARPPRLPRPRPRPGKTPRP | 0.312 |
| RRIRERPPRLPRPRPRPEYMPRP | -0.0257 |
| RRIRMRPPRLPRPRPRPHATPRP | 2.78 |
| RRIRFRPPRLPRPRPRPSDQPRP | -0.302 |
| RRIRARPPRLPRPRPRPVTSPRP | 0.293 |
| RRIRERPPRLPRPRPRPELCPRP | 0.511 |
| RRIRDRPPRLPRPRPRPFYAPRP | -0.439 |
| RRIRWRPPRLPRPRPRPAVGPRP | 0.229 |
| RRIRKRPPRLPRPRPRPTENPRP | 0.143 |
| RRIRWRPPRLPRPRPRPQELPRP | -0.0075 |
| RRIRYRPPRLPRPRPRPCMCPRP | -0.516 |
| RRIRDRPPRLPRPRPRPIVYPRP | -0.0329 |
| RRIRGRPPRLPRPRPRPTVYPRP | 0.185 |
| RRIRHRPPRLPRPRPRPNTWPRP | -0.0528 |
| RRIRVRPPRLPRPRPRPECCPRP | 0.0234 |
| RRIRFRPPRLPRPRPRPLMMPRP | -0.347 |
| RRIRRRPPRLPRPRPRPAFLPRP | -0.0132 |
| RRIRFRPPRLPRPRPRPAWRPRP | 0.765 |
| RRIRARPPRLPRPRPRPIWPPRP | 0.353 |
| RRIRFRPPRLPRPRPRPVMWPRP | 0.0942 |

| Sequence | shrunken log2 fold change |
| --- | --- |
| RRIRQRPPRLPRPRPRPNHQPRP | -0.0841 |
| RRIRYRPPRLPRPRPRPNMCPRP | 0.00841 |
| RRIRNRPPRLPRPRPRPHGKPRP | 0.0681 |
| RRIRRRPPRLPRPRPRPETWPRP | 0.234 |
| RRIRYRPPRLPRPRPRPQAGPRP | 0.00284 |
| RRIRGRPPRLPRPRPRPNLRPRP | 0.283 |
| RRIRDRPPRLPRPRPRPEWPPRP | 0.209 |
| RRIRTRPPRLPRPRPRPCKVPRP | -0.233 |
| RRIRARPPRLPRPRPRPWPSPRP | -0.0645 |
| RRIRCRPPRLPRPRPRPFWKPRP | -0.271 |
| RRIRRRPPRLPRPRPRPQLQPRP | 0.413 |
| RRIRIRPPRLPRPRPRPKNVPRP | -0.139 |
| RRIRLRPPRLPRPRPRPIPQPRP | -0.0537 |
| RRIRCRPPRLPRPRPRPYGLPRP | -0.0136 |
| RRIRVRPPRLPRPRPRPIPNPRP | 0.0329 |
| RRIRWRPPRLPRPRPRPFVAPRP | 0.292 |
| RRIRERPPRLPRPRPRPMYFPRP | -0.251 |
| RRIRQRPPRLPRPRPRPHGYPRP | -0.138 |
| RRIRMRPPRLPRPRPRPCKVPRP | -0.0465 |
| RRIRERPPRLPRPRPRPNEQPRP | -0.215 |
| RRIRSRPPRLPRPRPRPWEGPRP | -0.0466 |
| RRIRRRPPRLPRPRPRPWVQPRP | 0.25 |
| RRIRVRPPRLPRPRPRPIPYPRP | -0.0701 |
| RRIRPRPPRLPRPRPRPHVFPRP | -0.327 |
| RRIRYRPPRLPRPRPRPEHAPRP | 0.0635 |

| Sequence | shrunken log2 fold change |
| --- | --- |
| RRIRGRPPRLPRPRPRPYQSPRP | 0.00308 |
| RRIRCRPPRLPRPRPRPIEPPRP | 0.159 |
| RRIRSRPPRLPRPRPRPPFDPRP | 0.244 |
| RRIRGRPPRLPRPRPRPTFNPRP | 0.31 |
| RRIRWRPPRLPRPRPRPRANPRP | 0.425 |
| RRIRHRPPRLPRPRPRPWMMPRP | -0.463 |
| RRIRWRPPRLPRPRPRPDRKPRP | -0.0752 |
| RRIRWRPPRLPRPRPRPWLVPRP | -0.237 |
| RRIRWRPPRLPRPRPRPHTHPRP | -0.268 |
| RRIRLRPPRLPRPRPRPHSCPRP | -0.884 |
| RRIRTRPPRLPRPRPRPQMFPRP | 0.0287 |
| RRIRKRPPRLPRPRPRPADKPRP | 0.122 |
| RRIRMRPPRLPRPRPRPAIQPRP | -0.00069 |
| RRIRPRPPRLPRPRPRPGPCPRP | 0.363 |
| RRIRPRPPRLPRPRPRPKKYPRP | -0.555 |
| RRIRCRPPRLPRPRPRPYSDPRP | -0.0426 |
| RRIRYRPPRLPRPRPRPGIAPRP | -0.269 |
| RRIRNRPPRLPRPRPRPDCYPRP | -0.871 |
| RRIRTRPPRLPRPRPRPRGLPRP | 0.62 |
| RRIRDRPPRLPRPRPRPATLPRP | -0.146 |
| RRIRKRPPRLPRPRPRPWMTPRP | -0.13 |
| RRIRDRPPRLPRPRPRPCQGPRP | 0.028 |
| RRIRDRPPRLPRPRPRPMECPRP | 0.0176 |
| RRIRKRPPRLPRPRPRPHYGPRP | -0.0816 |
| RRIRERPPRLPRPRPRPHTNPRP | -0.466 |

| Sequence | shrunken log2 fold change |
| --- | --- |
| RRIRQRPPRLPRPRPRPHDAPRP | -0.0149 |
| RRIRWRPPRLPRPRPRPCHWPRP | -0.116 |
| RRIRCRPPRLPRPRPRPQPGPRP | 0.437 |
| RRIRQRPPRLPRPRPRPHVHPRP | -0.124 |
| RRIRIRPPRLPRPRPRPFRAPRP | -0.332 |
| RRIRKRPPRLPRPRPRPHKSPRP | 0.0371 |
| RRIRKRPPRLPRPRPRPHSIPRP | 0.124 |
| RRIRCRPPRLPRPRPRPSDIPRP | -0.814 |
| RRIRRRPPRLPRPRPRPDGRPRP | 0.0193 |
| RRIRSRPPRLPRPRPRPHCFPRP | 0.111 |
| RRIRERPPRLPRPRPRPQYDPRP | -0.418 |
| RRIRYRPPRLPRPRPRPEGIPRP | -0.0155 |
| RRIRDRPPRLPRPRPRPCFNPRP | -0.134 |
| RRIRSRPPRLPRPRPRPCMSPRP | -0.348 |
| RRIRTRPPRLPRPRPRPLPTPRP | 0.368 |
| RRIRHRPPRLPRPRPRPRRIPRP | 0.0543 |
| RRIRRRPPRLPRPRPRPCESPRP | 0.0471 |
| RRIRIRPPRLPRPRPRPCEQPRP | 0.0927 |
| RRIRYRPPRLPRPRPRPHPRPRP | -0.392 |
| RRIRLRPPRLPRPRPRPDESPRP | 0.148 |
| RRIRHRPPRLPRPRPRPVPLPRP | -0.396 |
| RRIRRRPPRLPRPRPRPPWHPRP | 0.516 |
| RRIRSRPPRLPRPRPRPMDCPRP | 0.00208 |
| RRIRIRPPRLPRPRPRPADLPRP | 0.0446 |
| RRIRWRPPRLPRPRPRPPRPPRP | 0.859 |

| Sequence | shrunken log2 fold change |
| --- | --- |
| RRIRTRPPRLPRPRPRPTPAPRP | 0.57 |
| RRIRIRPPRLPRPRPRPEDGPRP | -0.00203 |
| RRIRSRPPRLPRPRPRPCWQPRP | -0.00872 |
| RRIRLRPPRLPRPRPRPMKYPRP | -0.236 |
| RRIRYRPPRLPRPRPRPVQEPRP | -0.149 |
| RRIRNRPPRLPRPRPRPQMDPRP | 0.0304 |
| RRIRFRPPRLPRPRPRPSYWPRP | -0.519 |
| RRIRPRPPRLPRPRPRPGDDPRP | -0.292 |
| RRIRRRPPRLPRPRPRPVELPRP | 0.0415 |
| RRIRSRPPRLPRPRPRPCAKPRP | 0.0351 |
| RRIRHRPPRLPRPRPRPSTLPRP | -0.0931 |
| RRIRVRPPRLPRPRPRPGYQPRP | -0.00841 |
| RRIRKRPPRLPRPRPRPIDCPRP | 0.0653 |
| RRIRFRPPRLPRPRPRPSSGPRP | -0.0411 |
| RRIRQRPPRLPRPRPRPGQWPRP | 0.00718 |
| RRIRERPPRLPRPRPRPYSFPRP | -0.0431 |
| RRIRHRPPRLPRPRPRPFWVPRP | -0.00136 |
| RRIRVRPPRLPRPRPRPDQLPRP | 0.112 |
| RRIRSRPPRLPRPRPRPLPWPRP | 0.21 |
| RRIRYRPPRLPRPRPRPFYIPRP | -1.26 |
| RRIRFRPPRLPRPRPRPWWIPRP | -0.681 |
| RRIRNRPPRLPRPRPRPEDIPRP | -0.194 |
| RRIRRRPPRLPRPRPRPKIKPRP | -0.0183 |
| RRIRIRPPRLPRPRPRPHQSPRP | -0.406 |
| RRIRKRPPRLPRPRPRPQSKPRP | 0.116 |
